Experimental data taken from patent publication US20230406915A1 (HJB HANGZHOU, published 2023).
Substitutions are numbered along the chain they refer to.

Key:
[1] = target: the molecule itself; assay: BLI (forteBIO Octet RED96), antibody captured on ProA biosensor, self-association in acetate buffer pH 5.5; acetate at pH 5.5; self-association
Procedure: (§1) Self-association binding constant: At high concentrations, undesirable solution properties such as self-association can pose significant challenges to preparation development. In addition to potential manufacturing and delivery challenges, self-associating substances can also affect biological activity and pharmacokinetic properties.
(§2) The self-association binding constants were measured using the forteBIO Octet technique (Octet RED96). The antibodies were diluted to 150 ug/mL with an acetate buffer (pH 5.5), and then added to sample plates (forteBIO, Greiner, PN655209). A ProA biosensor (forteBIO) was used to capture antibodies. Measurements were performed using basic dynamics under the following settings: baseline 60/load 900/baseline 60/association 300/dissociation 300. The association (Kon) and dissociation (Kdis) rate constants of the target antigen were calculated and used to obtain the dissociation constant (KD). All calculations were performed using software provided by forteBIO.

[2] = target: the molecule itself; assay: BLI (forteBIO Octet RED96), antibody captured on ProA biosensor, self-association in acetate buffer pH 5.5
Procedure: as §1, §2

B1: M-751 (antibody, V domains shown)
VH: QVQLVQSGAEVKKPGSSVKVSCKASGYTFTNYWMNWVRQAPGQGLEWMGMIHPSDSETRLNQKFQGRVTITVDKSTSTAYMELSSLRSEDTAVYYCAREGRLGLRSYAMDYWGQGTLVTVSS
VL: DIQMTQSPSSLSASVGDRVTITCRSSQSLLNSSNQKNYLAWYQQKPGKVPKLLIYFASTRESGVPSRFSGSGSGTDFTLTISSLQPEDVATYFCQQHYITPLTFGGGTKVEIKR
notes: also called candidate antibody
Kd [1]: 438 µM

B2: M-747 (antibody, human IgG1, kappa, V domains shown)
VH: B1 VH with A9S, V11L, S16A, Q65K, G66D
VL: DIVMTQSPDSLAVSLGERATINCKSSQSLLNSSNQKNYLAWYQQKPGQPPKLLVYFASTRESGVPDRFSGSGSGTDFTLTISSLQAEDVAVYFCQQHYITPLTFGGGTKVEIKR
notes: Humanized anti-DKK2 parental antibody; also called parental antibody; parental molecule
Kd [2]: 208 µM

B3: M-755 (antibody, V domains shown)
VH: B1 VH with S16A, F64L, S84R, E89D
VL: B1 VL with V49A, V89F
notes: as for B1
Kd [2]: 456 µM
